The source of these data is publication PMC5227094.

The target in the experiment is PSD95 (mouse (endogenous in forebrain)) (UniProt Q62108). Put plainly: native gel or EMSA; BNP GluN1 immunoblot of forebrain deoxycholate extracts of WT and Glun2b^2A(CTR)/2A(CTR) mice; 1.5-NR band quantified relative to WT. In general terms: In EMSA bound probe runs differently from free probe, usually more slowly.
UniProt Q62108, sequence (Q62108 whole entry): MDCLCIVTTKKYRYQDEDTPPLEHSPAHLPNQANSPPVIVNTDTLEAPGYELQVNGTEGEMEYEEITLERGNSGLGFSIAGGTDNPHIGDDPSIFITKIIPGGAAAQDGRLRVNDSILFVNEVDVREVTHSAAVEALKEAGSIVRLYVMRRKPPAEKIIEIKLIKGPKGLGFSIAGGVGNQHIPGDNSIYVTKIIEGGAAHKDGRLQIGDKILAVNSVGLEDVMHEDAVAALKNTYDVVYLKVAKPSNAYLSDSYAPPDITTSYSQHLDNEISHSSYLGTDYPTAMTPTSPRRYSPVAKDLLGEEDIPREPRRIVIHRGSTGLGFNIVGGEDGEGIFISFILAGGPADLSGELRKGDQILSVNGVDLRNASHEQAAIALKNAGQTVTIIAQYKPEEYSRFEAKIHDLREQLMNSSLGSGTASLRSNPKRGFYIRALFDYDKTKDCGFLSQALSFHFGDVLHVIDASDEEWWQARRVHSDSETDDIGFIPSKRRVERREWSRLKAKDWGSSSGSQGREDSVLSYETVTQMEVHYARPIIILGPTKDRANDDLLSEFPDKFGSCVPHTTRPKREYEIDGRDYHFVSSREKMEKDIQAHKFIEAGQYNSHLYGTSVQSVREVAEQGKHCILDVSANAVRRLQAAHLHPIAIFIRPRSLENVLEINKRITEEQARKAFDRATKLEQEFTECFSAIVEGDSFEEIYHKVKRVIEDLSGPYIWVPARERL

“GluN2B with its C-terminal domain replaced by that of GluN2A (Glun2b^2A(CTR)/2A(CTR) knock-in)”: the 1.5-NR, % of WT was 6 % of WT.
